Measurements from publication PMC9867979, “Pab1 acetylation at K131 decreases stress granule formation in Saccharomyces cerevisiae”.

Biological target: Pab1 RRM1-RRM2 (Saccharomyces cerevisiae, UniProt P04147 38-203)
Experiment: EMSA; protein titration up to 5000 nM; EMSA: 1x binding buffer (from 5x: 50 mM Tris-HCl pH 7.5, 750 mM KCl, 0.5 mM EDTA, 0.5 mM DTT) = 10 mM Tris-HCl, 150 mM KCl, 0.1 mM EDTA, 0.1 mM DTT, plus protein buffer (20 mM Tris-HCl pH 7.4, 100 mM KOAc, 2 mM MgOAc, 10% glycerol); 20 ul, 30 C, 30 min; 10% native PAGE, 0.4x TBE, 4 C
Conditions: protein: recombinant; tags: GST (pGEX-4T-1), removed with thrombin; label: Cy5 at both ends (as named); single strand

Sequence of Pab1 RRM1-RRM2 (P04147 38-203): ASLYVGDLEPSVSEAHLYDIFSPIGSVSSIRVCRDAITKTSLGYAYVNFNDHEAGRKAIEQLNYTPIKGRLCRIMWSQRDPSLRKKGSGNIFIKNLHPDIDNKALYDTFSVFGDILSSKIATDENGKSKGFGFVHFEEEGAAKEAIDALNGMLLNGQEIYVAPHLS

B1: Cy5-Poly(A)20-Cy5 (ssRNA)
RNA: AAAAAAAAAAAAAAAAAAAA
- binding result: binds
